Assay [1] has as its target T1, human Claudin-18.2 (CLDN18.2) (human).
T1 construct: On cells: fused to GFP in engineered HEK293T cells (clone C12), endogenous in HUPT4 and SNU601 cells; also called human CLDN18.2
Nature of the assay: flow cytometry; HUPT4 over M202 [Cont.]. In general terms: In flow cytometry, cells or beads pass a laser one at a time.
Protocol: (§1) The samples were then measured by Intellicyt® iQue Advanced Flow Cytometry Platform.

The target in assay [2] is T1, human Claudin-18.2 (CLDN18.2). Nature of the assay: flow cytometry; HEK293T CLDN18.2 over HEK293T parental [Cont.].
Protocol: as §1
The target is the same in assay [3]. Kind of assay: FACS, 1.5 ug antibody, HEK293T-CLDN18.2 C12 clone cells.
Assay [4] shares this target. Kind of assay: FACS, 1.5 ug antibody, HUPT4 cells (endogenous CLDN18.2).
Protocol: FACS assays were carried out to determine relative antigen binding strengths of the humanized antibodies (at either 1.5 μg or 0.3 μg) for binding to CLDN18.2 as expressed by the indicated cancer cell lines.

B1: 02-0307-5h antibody (antibody, V domains shown)
VH: EVQLLESGGGLVQPGGSLRLSCAASGFTFSSYTMSWVRQAPGKGLEWVATIIIGGSYTYYADSVKGRFTISRDNSKNTLYLQMNSLRAEDTAVYYCTRLVKGNAMDYWGQGTLVTVSS
VL: DIVMTQSPDSLAVSLGERVTMNCKSSQSLLQSGNQKNYLSWYQQKPGQPPKLLFYWASTRESGVPDRFSGSGSGTDFTLTISSVQAEDVAVYYCQNDYSYPFTFGQGTKLEIK
notes: also called 02-h1F06-5h
Take B1: in assay [1], the ratio native came out at 121. In addition, the “ratio OE” value in assay [2] turned out to be 408.

B2: 02-0307-9h antibody (antibody, V domains shown)
VH: EVQLLESGGGLVQPGGSLRLSCAASGFTFSSYTMSWVRQAPGKGLEWVATIIIGGSYTYYADSVKGRFTISRDNSKNTLYLQMNSLRAEDTAVYYCTRLVKGQAMDYWGQGTLVTVSS
VL: DIVMTQSPDSLAVSLGERVTMNCKSSQSLLSSGNQKNYLSWYQQKPGQPPKLLFYWASTRESGVPDRFSGSGSGTDFTLTISSVQAEDVAVYYCQNDYSYPFTFGQGTKLEIK
notes: also called 02-h1F06-9h
Consider B2, for which the ratio native in assay [1] came out at 45.1. Moreover, in assay [2], the “ratio OE” value is 273.

B3: 02-0307-10h antibody (antibody, V domains shown)
VH: EVQLLESGGGLVQPGGSLRLSCAASGFTFSSYTMSWVRQAPGKGLEWVATIIIGGSYTYYADSVKGRFTISRDNSKNTLYLQMNSLRAEDTAVYYCTRLVKGSAMDYWGQGTLVTVSS
VL: DIVMTQSPDSLAVSLGERVTMNCKSSQSLLNSGNQKNYLSWYQQKPGQPPKLLFYWASTRESGVPDRFSGSGSGTDFTLTISSVQAEDVAVYYCQNDYSYPFTFGQGTKLEIK
notes: also called 02-h1F06-10h
Consider B3, for which, in assay [1], the ratio native came to 6.42. In addition, in assay [2], the “ratio OE” value stood at 202.

B4: 02-0307-12h antibody (antibody, V domains shown)
VH: EVQLLESGGGLVQPGGSLRLSCAASGFTFSSYTMSWVRQAPGKGLEWVATIIIGGSYTYYADSVKGRFTISRDNSKNTLYLQMNSLRAEDTAVYYCTRLVKGSAMDYWGQGTLVTVSS
VL: DIVMTQSPDSLAVSLGERVTMNCKSSQSLLSSGNQKNYLSWYQQKPGQPPKLLFYWASTRESGVPDRFSGSGSGTDFTLTISSVQAEDVAVYYCQNDYSYPFTFGQGTKLEIK
notes: also called 02-h1F06-12h
For the molecule B4, the ratio native in assay [1] was determined as 9.89. Further, the “ratio OE” value in assay [2] worked out at 183.

B5: 02-0358-4h antibody (antibody, V domains shown)
VH: EVQLVESGGGLVQPGGSLRLSCAVSGFTFSSFGMHWVRQAPGKGLEWVAYISSGTTNIYYADSVKGRFTVSRDNAKNSLYLQMNSLRAEDTAVYYCVRSGYYGNSLDYWGQGTLVTVSS
VL: DIVMTQSPDSLAVSLGERVTMNCKSSQSLFQSGNQRNYLTWYQQKPGQPPKLLIYWASTRESGVPDRFSGSGSGTDFTLTISSVQAEDVAVYYCQNVYIYPLTFGQGTKLEIK
B5: in assay [1], the ratio native is 94. The “ratio OE” value in assay [2] is 575.

B6: 02-0307-8h antibody (antibody, V domains shown)
VH: EVQLLESGGGLVQPGGSLRLSCAASGFTFSSYTMSWVRQAPGKGLEWVATIIIGGSYTYYADSVKGRFTISRDNSKNTLYLQMNSLRAEDTAVYYCTRLVKGQAMDYWGQGTLVTVSS
VL: DIVMTQSPDSLAVSLGERVTMNCKSSQSLLQSGNQKNYLSWYQQKPGQPPKLLFYWASTRESGVPDRFSGSGSGTDFTLTISSVQAEDVAVYYCQNDYSYPFTFGQGTKLEIK
notes: also called 02-h1F06-8h
On to B6, for which the ratio native in assay [1] is 12.2. Also, the “ratio OE” value in assay [2] came to 166.

B7: 02-0307-7h antibody (antibody, V domains shown)
VH: EVQLLESGGGLVQPGGSLRLSCAASGFTFSSYTMSWVRQAPGKGLEWVATIIIGGSYTYYADSVKGRFTISRDNSKNTLYLQMNSLRAEDTAVYYCTRLVKGQAMDYWGQGTLVTVSS
VL: DIVMTQSPDSLAVSLGERVTMNCKSSQSLLNSGNQKNYLSWYQQKPGQPPKLLFYWASTRESGVPDRFSGSGSGTDFTLTISSVQAEDVAVYYCQNDYSYPFTFGQGTKLEIK
notes: also called 02-h1F06-7h
Take B7: in assay [1], the ratio native was 22.5. Moreover, in assay [2], the “ratio OE” value was 326.

B8: 02-0307-11h antibody (antibody, V domains shown)
VH: EVQLLESGGGLVQPGGSLRLSCAASGFTFSSYTMSWVRQAPGKGLEWVATIIIGGSYTYYADSVKGRFTISRDNSKNTLYLQMNSLRAEDTAVYYCTRLVKGSAMDYWGQGTLVTVSS
VL: DIVMTQSPDSLAVSLGERVTMNCKSSQSLLQSGNQKNYLSWYQQKPGQPPKLLFYWASTRESGVPDRFSGSGSGTDFTLTISSVQAEDVAVYYCQNDYSYPFTFGQGTKLEIK
notes: also called 02-h1F06-11h
On to B8, for which, in assay [1], the ratio native was found to be 1.52. Further, the “ratio OE” value in assay [2] was determined as 40.

B9: HuAb360-3 (antibody, V domains shown)
VH: QVQLVQSGAEVKKPGASVKMSCKASGYTFTSYLMHWVRQAPGQGLEWIGYINPYNDGTNYAQKFQGRATLTSDTSTSTAYMELSSLRSEDTAVYYCTRGDYWGQGTLVTVSS
VL: DIVMTQSPDSLAVSLGERATINCKSSQSLLNSGNQKNYLTWYQQKPGQPPKLLIYWASIRQSGVPDRFSGSGSGTDFTLTISSLQAEDVAVYYCLNDYGFPLTFGQGTKLEIK
Consider B9, for which the “FACS signal (relative antigen binding strength)” value in assay [3] was determined as 157000; in assay [4], 27400.

B10: HuAb360-5 (antibody, V domains shown)
VH: QVQLVQSGAEVKKPGASVKMSCKASGYTFTSYLMHWVRQAPGQGLEWIGYINPYNDGTNYAQKFQGRATLTSDKSTSTAYMELSSLRSEDTAVYYCTRGDYWGQGTLVTVSS
VL: DIVMTQSPDSLAVSLGERATINCKSSQSLLNSGNQKNYLTWYQQKPGQPPKLLIYWASIRQSGVPDRFSGSGSGTDFTLTISSLQAEDVAVYYCLNDYGFPLTFGQGTKLEIK
Turning to B10, the “FACS signal (relative antigen binding strength)” value in assay [3] worked out at 138000; in assay [4], 28600.

B11: HuAb360-4 (antibody, V domains shown)
VH: QVQLVQSGAEVKKPGASVKMSCKASGYTFTSYLMHWVRQAPGQGLEWIGYINPYNDGTNYAQKFQGRATLTSDTSTSTAYMELSSLRSEDTAVYYCTRGDYWGQGTLVTVSS
VL: DIVMTQSPDSLAVSLGERVTMNCKSSQSLLNSGNQKNYLTWYQQKPGQPPKLLIYWASIRQSGVPDRFSGSGSGTDFTLTISSVQAEDVAVYYCLNDYGFPLTFGQGTKLEIK
Regarding B11, the “FACS signal (relative antigen binding strength)” value in assay [3] turned out to be 149000; in assay [4], 28000.

B12: HuAb360-2 (antibody, V domains shown)
VH: QVQLVQSGAEVKKPGASVKVSCKASGYTFTSYLMHWVRQAPGQGLEWIGYINPYNDGTNYAQKFQGRVTMTSDTSTSTVYMELSSLRSEDTAVYYCTRGDYWGQGTLVTVSS
VL: DIVMTQSPDSLAVSLGERVTMNCKSSQSLLNSGNQKNYLTWYQQKPGQPPKLLIYWASIRQSGVPDRFSGSGSGTDFTLTISSVQAEDVAVYYCLNDYGFPLTFGQGTKLEIK
In the case of B12, the “FACS signal (relative antigen binding strength)” value was found to be 138000 in assay [3] and 24900 in assay [4].

B13: HuAb360-1 (antibody, V domains shown)
VH: QVQLVQSGAEVKKPGASVKVSCKASGYTFTSYLMHWVRQAPGQGLEWIGYINPYNDGTNYAQKFQGRVTMTSDTSTSTVYMELSSLRSEDTAVYYCTRGDYWGQGTLVTVSS
VL: DIVMTQSPDSLAVSLGERATINCKSSQSLLNSGNQKNYLTWYQQKPGQPPKLLIYWASIRQSGVPDRFSGSGSGTDFTLTISSLQAEDVAVYYCLNDYGFPLTFGQGTKLEIK
Consider B13, for which the “FACS signal (relative antigen binding strength)” value in assay [3] was determined as 120000; in assay [4], 26400.

B14: HuAb360-6 (antibody, V domains shown)
VH: QVQLVQSGAEVKKPGASVKMSCKASGYTFTSYLMHWVRQAPGQGLEWIGYINPYNDGTNYAQKFQGRATLTSDKSTSTAYMELSSLRSEDTAVYYCTRGDYWGQGTLVTVSS
VL: DIVMTQSPDSLAVSLGERVTMNCKSSQSLLNSGNQKNYLTWYQQKPGQPPKLLIYWASIRQSGVPDRFSGSGSGTDFTLTISSVQAEDVAVYYCLNDYGFPLTFGQGTKLEIK
Turning to B14, the “FACS signal (relative antigen binding strength)” value in assay [3] was found to be 159000; in assay [4], 34600.

B15: Zolbetuximab (Benchmark 3) (antibody, V domains shown)
VH: QVQLQQPGAELVRPGASVKLSCKASGYTFTSYWINWVKQRPGQGLEWIGNIYPSDSYTNYNQKFKDKATLTVDKSSSTAYMQLSSPTSEDSAVYYCTRSWRGNSFDYWGQGTTLTVSS
VL: DIVMTQSPSSLTVTAGEKVTMSCKSSQSLLNSGNQKNYLTWYQQKPGQPPKLLIYWASTRESGVPDRFTGSGSGTDFTLTISSVQAEDLAVYYCQNDYSYPFTFGSGTKLEIK
notes: also called zoletuximab
As to B15, the “FACS signal (relative antigen binding strength)” value in assay [3] is 109000; in assay [4], 10600.

B16: Ab 360 (antibody, V domains shown)
VH: VVQLQQSGPELVKPGASVKMSCKASGYTFTSYLMHWVRQKPGLGLDWIGYINPYNDGTNYNAKFIDKATLTSDKTSSTAYMELSSLTSEDSAIYYCTRGDYWGQGTSVTVSS
VL: DIVMTQSPSSLAVTAGEQVTMSCKSSQSLLNSGNQKNYLTWYQQKPGQPPKLLIYWASIRQSGVPDRFTGSGSGTDFTLTISSVQAEDLAVYYCLNDYGFPLTFGAGTKLELK
notes: also called 360-Chim
Regarding B16, the “FACS signal (relative antigen binding strength)” value in assay [3] was 117000; in assay [4], 26200.

B17: Ab 358 (antibody, V domains shown)
VH: VVQLVESGGDFVQPGGSRKLSCAVSGFTFSSFGMHWVRQAPEKGLEWVAYISSGTTNIYYADTVKGRFTVSRDNPKNSLFLHMTSLRSEDTAMYYCVRSGYYGNSLDYWGQGTPLTVSS
VL: DIVMTQSPSSLTVTAGEKVTMSCKSSQSLFNSGNQRNYLTWYQQKPGQPPKLLIYWASTRESGVPDRFTGSGSGTGFTLTISSVQAEDLAFYYCQNVYIYPLTFGLGTKLELR
On to B17, for which the “FACS signal (relative antigen binding strength)” value amounted to 139000 in assay [3] and 33300 in assay [4].

B18: Ab 307 (antibody, V domains shown)
VH: DVKLVESGGGLVKPGGSLKLSCAASGFTFSSYTMSWVRQTPEKRLEWVATIIIGGSYTYYPDSVKGRFTISRDNAKNTLYLQMSSLKSEDTAMYYCTRLVKGNAMDYWGQGTSVAVSS
VL: DIVMTQSPSSLTVTTGEKVTMSCKSSQSLLNSGNQKNYLSWYQQIPGQPPKLLFYWASTRESGVPDRFTGSGSGTDFTLTISNVQAEDLAVYYCQNDYSYPFTFGAGTKLELR
In the case of B18, the “FACS signal (relative antigen binding strength)” value in assay [3] is 141000; in assay [4] it was 34700.
